In IntAct's records for PubMed 33097660:

B1: ORF6 protein (SARS-CoV-2), P0DTC6 (parent)
chain: MFHLVDFQVTIAEILLIIMRTFKVSIWNLDYIINLIIKNLSKSLTENKYSQLDEEQPMEID

Variants of: B1
Conditions: with ima5_human KPNA1, P52294
ima5_human KPNA1, P52294, sequence (P52294 whole entry): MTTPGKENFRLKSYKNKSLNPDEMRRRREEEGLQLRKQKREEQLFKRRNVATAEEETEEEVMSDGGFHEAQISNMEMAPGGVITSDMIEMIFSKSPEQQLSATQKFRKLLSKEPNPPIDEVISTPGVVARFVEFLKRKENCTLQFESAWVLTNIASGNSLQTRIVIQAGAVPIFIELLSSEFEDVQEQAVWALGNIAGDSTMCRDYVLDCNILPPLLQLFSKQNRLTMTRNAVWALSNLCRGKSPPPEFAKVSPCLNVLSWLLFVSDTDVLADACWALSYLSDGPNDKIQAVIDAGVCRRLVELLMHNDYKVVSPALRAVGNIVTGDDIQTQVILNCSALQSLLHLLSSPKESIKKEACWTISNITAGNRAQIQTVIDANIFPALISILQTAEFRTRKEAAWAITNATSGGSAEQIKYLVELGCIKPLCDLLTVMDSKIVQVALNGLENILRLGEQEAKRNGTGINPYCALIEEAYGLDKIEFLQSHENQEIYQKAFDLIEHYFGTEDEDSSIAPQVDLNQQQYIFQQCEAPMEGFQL

Variant	effect of a mutation on the interaction
M58R	with no effect

Variants of: B1
Conditions: with ima1_human KPNA2, P52292

Variant	effect of a mutation on the interaction
M58R	with no effect

Variants of: B1
Conditions: with nup98_human NUP98, P52948
nup98_human NUP98, P52948, sequence (P52948 whole entry): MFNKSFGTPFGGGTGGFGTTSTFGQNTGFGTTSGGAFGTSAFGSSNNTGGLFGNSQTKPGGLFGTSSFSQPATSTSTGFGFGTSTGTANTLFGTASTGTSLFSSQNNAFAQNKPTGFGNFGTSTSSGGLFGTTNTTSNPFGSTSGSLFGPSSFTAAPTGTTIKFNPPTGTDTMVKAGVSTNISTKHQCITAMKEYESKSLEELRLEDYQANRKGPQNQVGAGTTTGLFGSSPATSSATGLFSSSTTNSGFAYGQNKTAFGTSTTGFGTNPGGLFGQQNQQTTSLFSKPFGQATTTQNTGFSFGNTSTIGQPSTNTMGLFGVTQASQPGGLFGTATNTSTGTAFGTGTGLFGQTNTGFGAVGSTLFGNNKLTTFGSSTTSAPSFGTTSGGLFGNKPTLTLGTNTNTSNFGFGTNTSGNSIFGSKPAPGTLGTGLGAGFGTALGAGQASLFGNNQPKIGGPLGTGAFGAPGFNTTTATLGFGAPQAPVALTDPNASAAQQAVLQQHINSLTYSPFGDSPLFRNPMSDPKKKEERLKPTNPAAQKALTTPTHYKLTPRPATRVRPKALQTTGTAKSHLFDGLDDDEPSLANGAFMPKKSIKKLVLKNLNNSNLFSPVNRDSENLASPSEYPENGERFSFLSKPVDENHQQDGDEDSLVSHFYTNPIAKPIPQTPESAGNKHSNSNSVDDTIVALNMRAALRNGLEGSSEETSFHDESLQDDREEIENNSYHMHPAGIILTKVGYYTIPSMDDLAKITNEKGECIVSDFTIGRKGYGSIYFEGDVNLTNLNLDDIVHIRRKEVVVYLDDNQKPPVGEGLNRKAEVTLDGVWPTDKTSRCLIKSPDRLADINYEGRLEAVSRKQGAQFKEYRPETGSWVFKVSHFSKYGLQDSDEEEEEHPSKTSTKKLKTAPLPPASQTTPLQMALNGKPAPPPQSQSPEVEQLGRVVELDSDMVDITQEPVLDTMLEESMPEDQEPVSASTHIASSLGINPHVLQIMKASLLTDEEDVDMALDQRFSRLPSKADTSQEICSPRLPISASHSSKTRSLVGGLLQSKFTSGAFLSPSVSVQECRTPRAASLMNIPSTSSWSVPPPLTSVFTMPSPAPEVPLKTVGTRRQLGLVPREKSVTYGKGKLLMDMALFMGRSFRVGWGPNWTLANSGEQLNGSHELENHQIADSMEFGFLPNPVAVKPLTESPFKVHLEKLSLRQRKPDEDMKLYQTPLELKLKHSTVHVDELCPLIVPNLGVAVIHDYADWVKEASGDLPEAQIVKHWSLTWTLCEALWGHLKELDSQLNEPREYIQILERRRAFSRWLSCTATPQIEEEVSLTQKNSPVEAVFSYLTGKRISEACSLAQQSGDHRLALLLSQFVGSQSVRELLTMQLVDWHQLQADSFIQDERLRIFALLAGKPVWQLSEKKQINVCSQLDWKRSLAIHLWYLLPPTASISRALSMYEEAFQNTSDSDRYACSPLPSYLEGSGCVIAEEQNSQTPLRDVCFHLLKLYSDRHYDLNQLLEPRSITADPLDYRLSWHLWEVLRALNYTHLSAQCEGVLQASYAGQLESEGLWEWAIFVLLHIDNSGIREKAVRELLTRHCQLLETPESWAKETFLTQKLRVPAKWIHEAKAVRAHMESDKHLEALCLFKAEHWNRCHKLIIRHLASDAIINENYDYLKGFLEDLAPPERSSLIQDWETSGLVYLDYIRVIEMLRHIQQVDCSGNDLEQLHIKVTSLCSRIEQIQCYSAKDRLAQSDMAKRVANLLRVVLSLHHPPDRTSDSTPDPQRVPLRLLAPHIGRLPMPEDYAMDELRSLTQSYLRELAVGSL

Variant	effect of a mutation on the interaction
M58R	disrupting interaction strength
